# Laboratory results reported in the Immune Epitope Database (IEDB).
# Columns and labels:
# [1] = target: HLA-A*01:01; test: IEDB peptide-MHC binding, purified MHC/competitive/radioactivity; filed as Kd, often an IC50 or EC50 that approximates it; ≥ and ≤ were set here for values at or beyond the usual limits of such assays
# [2] = target: HLA-A*26:01; test: as above
# [3] = target: HLA-A*29:02; test: as above
# [4] = target: HLA-A*30:01; test: as above
# [5] = target: HLA-A*30:02; test: as above
# [6] = target: HLA-A*32:01; test: as above
# [7] = target: HLA-A*24:02; test: IEDB peptide-MHC binding, purified MHC/competitive/fluorescence; ≥ and ≤ were set here for values at or beyond the usual limits of such assays
# [8] = target: HLA-B*15:01; test: IEDB peptide-MHC binding, purified MHC/competitive/radioactivity; filed as Kd, often an IC50 or EC50 that approximates it; ≥ and ≤ were set here for values at or beyond the usual limits of such assays; details: source organism: Dengue virus 3 Martinique/1243/1999
# [9] = target: HLA-A*68:01; test: as above; details: source organism: Dengue virus 1 Brazil/97-11/1997
# [10] = target: HLA-A*02:01; test: IEDB peptide-MHC binding, purified MHC/competitive/fluorescence; ≥ and ≤ were set here for values at or beyond the usual limits of such assays
# [11] = target: HLA-B*15:01; test: IEDB peptide-MHC binding, purified MHC/competitive/fluorescence; filed as Kd, often an IC50 or EC50 that approximates it; ≥ and ≤ were set here for values at or beyond the usual limits of such assays
# [12] = target: HLA-A*23:01; test: IEDB peptide-MHC binding, purified MHC/competitive/radioactivity; filed as Kd, often an IC50 or EC50 that approximates it; ≥ and ≤ were set here for values at or beyond the usual limits of such assays; details: source organism: Mammarenavirus oliverosense
# [13] = target: HLA-A*24:02; test: as above; details: source organism: Mammarenavirus oliverosense
# [14] = source organism: Mammarenavirus lassaense
# [15] = source organism: Dengue virus 3 Martinique/1243/1999
# [16] = source organism: Vaccinia virus WR
# [17] = source organism: Lymphocytic choriomeningitis virus (strain Armstrong)
# [18] = source organism: Zaire ebolavirus
# [19] = source organism: Vaccinia virus
# [20] = source organism: Sudan ebolavirus
# [21] = source organism: Mammarenavirus brazilense
sequence,measurement,setting,value
AAHSARPPPY,Kd,[1]; [14],18800 nM
same,Kd,[2]; [14],2280 nM
same,Kd,[3]; [14],272 nM
same,Kd,[4]; [14],114 nM
same,Kd,[5]; [14],4570 nM
same,Kd,[6]; [14],2410 nM
AGVLARWGTF,Kd,[6]; [15],8420 nM
AINFKIFNI,Kd,[6]; [16],22.1 nM
CSANNSHHY,Kd,[1]; [17],10.2 nM
same,Kd,[2]; [17],8050 nM
same,Kd,[3]; [17],522 nM
same,Kd,[4]; [17],≥ 43700 nM
same,Kd,[5]; [17],10.6 nM
same,Kd,[6]; [17],≥ 49800 nM
DFFSSHPLR,IC50,[7]; [18],≥ 124000 nM
DYGLVSKFM,IC50,[7]; [16],559 nM
EGAAIGLAW,IC50,[7]; [18],2320 nM
EMCDDTVTY,Kd,[2]; [15],11200 nM
same,Kd,[5]; [15],≥ 76900 nM
same,Kd,[8],99 nM
EQAFYTRVL,IC50,[7]; [16],58800 nM
EVMRSRWSRK,Kd,[6]; source organism: Dengue virus 1 Brazil/97-11/1997,≥ 50100 nM
same,Kd,[9],8.94 nM
EWAMEKSSK,IC50,[7]; [19],≥ 382000 nM
FHKEGAFFL,IC50,[10]; [18],≥ 97800 nM
same,IC50,[7]; [18],719 nM
FLFQLNDTI,IC50,[10]; [20],257 nM
same,IC50,[7]; [20],879 nM
GIFGAIAGF,Kd,[11]; source organism: Influenza A virus (A/equine/NewMarket/D64/79(H3N8)),288 nM
GLNISGYNY,Kd,[1]; [21],13400 nM
same,Kd,[2]; [21],≥ 67900 nM
same,Kd,[3]; [21],16.8 nM
same,Kd,[4]; [21],≥ 39200 nM
same,Kd,[5]; [21],95.7 nM
same,Kd,[6]; [21],16500 nM
GVVAFLILP,IC50,[10]; [18],53900 nM
same,IC50,[7]; [18],≥ 194000 nM
ICLSGEGWPY,Kd,[12],≥ 56800 nM
same,Kd,[13],≥ 70300 nM
same,Kd,[4]; [21],4290 nM
same,Kd,[6]; [21],≥ 21200 nM
IEVKYSPMY,Kd,[11]; source organism: Bacillus cereus G9241,221 nM
IGIEILNTI,IC50,[10]; [16],701 nM
same,IC50,[7]; [16],131 nM
ITLHLACGF,Kd,[6]; [16],1.41 nM
IVINPFVKF,Kd,[6]; [16],3260 nM
KFPYEGGKV,IC50,[10]; [19],≥ 96100 nM
same,IC50,[7]; [19],≥ 130000 nM
